“Also recorded” adds a separate entry of the source.

For test [1], the system named is HLA-DP5 expressed on mDC1 cells. The test is described as follows: Cell-surface peptide-display assay on HLA-DP5-expressing mDC1 cells. The note with it: 3.5 h at 37°C.
Experimental: (§1) The DPA1-stable cells were established by the transduction of mouse antigen-presenting dendritic cell line 1 (mDC1) cells with a retrovirus containing pMXs-Puro/DPA1 and selection with puromycin (5 μg ml^−1). The DPA1-stable cells were subsequently transduced with pMXs-IB/DPB1 and selected with blasticidin (5 μg ml^−1), to obtain DPA1- and DPB1-stable cells. […] The cell-surface expression levels of HLA-DP were analyzed with an EPICS-XL (Beckman Coulter) or BD FACSCalibur (BD Biosciences) flow cytometer. HLA-DP was stained with anti-HLA-DP (B7/21) (Leinco Technologies), and mouse IgG3 (6A3) (MBL), as the isotype control, was stained with phycoerythrin-conjugated anti-mouse IgG3 (Santa Cruz Biotechnology). mDC1 cells with certain uniform levels of HLA-DP5 expression were collected and used for the quantitative assays of cell-surface peptide-display and IL-2 production. […]
(§2) The parent mDC1 cells without HLA-DP5 expression (HLA-DP5[−]), and the HLA-DP5-expressing mDC1 cells, HLA-DP5[WT], were diluted with DMEM to 1.0 × 10^6 cells ml^−1. […] Thereafter, the cells were stained with Hoechst 33342 (diluted 1: 1000, at 4°C) (Thermo Fisher Scientific), and analyzed by a flow cytometer (BD LSRFortessa X-20, BD Biosciences) for the fluorescent intensity in the whole cell (TAMRA, excited at 561 nm) and that on the cell surface (Alexa647, excited at 640 nm). […]
For test [2], the system named is mDC1 cells (mouse antigen-presenting dendritic cell line 1). Kind of test: Uptake of TAMRA-labeled NF-pCj1 into mDC1 cells. The note with it: TAMRA MFI, 0.25–4 μM, 3.5 h at 37°C, flow cytometry.
Experimental: as §1, §2
Another test has as its system CD4^+ T cells. The test is described as follows: CFSE assay of CD4^+ T-cell proliferation in PBMCs of HLA-DP5^+ CP patients. The format is cell-based, human. The note with it: PBMCs from HLA-DP5^+ CP patients. As for the experimental part:
Peripheral blood was obtained from HLA-DP5^+ CP patients. Peripheral blood mononuclear cells (PBMCs) were isolated by a density gradient technique, using Ficoll-Paque PLUS. The research protocol for collecting and using PBMCs from allergic patients was approved by the Institutional Review Board of Kyushu University.
The CFSE assay was performed as described previously ([24]). Briefly, PBMCs (1.0 × 10^7 cells ml^−1 in PBS) were incubated for 10 min with 5 μM CFSE (Molecular Probes). Staining was terminated by adding PBS containing 5% pooled human serum, and after the cells were washed three times in PBS containing 1% pooled human serum, they were resuspended in culture medium (RPMI-1640 containing 5% pooled human serum) at 2.0 × 10^6 cells ml^−1. Stained cells (2.0 × 10^6 cells well^−1, 1 ml) were cultured in 24-well plates with medium alone, pCj1 (final concentration, 10 μg ml^−1), or NF-pCj1 (10 μg ml^−1). After 7 days, the cells treated with each antigen were pooled, washed in PBS, and stained with anti-human CD4-allophycocyanin (IgG1, clone RPA-T4, BioLegend) and 7-amino-actinomycin D (7-AAD) (BD Pharmingen). Antigen-specific, viable CD4^+ T cells were identified as 7AAD^−, CD4^+, CFSE^dim cells, and the proliferation levels of these antigen-specific CD4^+ T cells were examined in each experiment.

The test system of test [3] is TCR(SU3–3)-TG40 and TCR(NM-4)-TG40 cells. The test is described as follows: IL-2 production assay with HLA-DP5-expressing mDC1 cells. Particulars: vs WT NF-pCj1; HLA-DP5-mDC1s, 18 h, ELISA.
Experimental: The DPA1-stable cells were established by the transduction of mouse antigen-presenting dendritic cell line 1 (mDC1) cells with a retrovirus containing pMXs-Puro/DPA1 and selection with puromycin (5 μg ml^−1). The DPA1-stable cells were subsequently transduced with pMXs-IB/DPB1 and selected with blasticidin (5 μg ml^−1), to obtain DPA1- and DPB1-stable cells. […] The cell-surface expression levels of HLA-DP were analyzed with an EPICS-XL (Beckman Coulter) or BD FACSCalibur (BD Biosciences) flow cytometer. HLA-DP was stained with anti-HLA-DP (B7/21) (Leinco Technologies), and mouse IgG3 (6A3) (MBL), as the isotype control, was stained with phycoerythrin-conjugated anti-mouse IgG3 (Santa Cruz Biotechnology). mDC1 cells with certain uniform levels of HLA-DP5 expression were collected and used for the quantitative assays of cell-surface peptide-display and IL-2 production.
Human CD4^+ TG40 cells were infected with the recombinant retroviruses by using retronectin (Takara Bio), according to the manufacturer’s instructions.
HLA-DP5-expressing mDC1 cells (5.0 × 10^3 cells per well) were cultured with NF-pCj1 for 3 h in 96-well flat-bottom plates.
T-cell response to NF-pCj1 presented by mDC1s.
Test [4] has as its target NF-pCj1–HLA-DP5^ec (HLA-DP5α protein and NF-pCj1–HLA-DP5β fusion protein, extracellular regions) (human | Cryptomeria japonica) (UniProt P18632). Kind of test: SPR.
Test [5] deals with pCj1–HLA-DP5^ec (extracellular regions of HLA-DP5 with the nine-residue core peptide pCj1 fused to the β chain) (human | Cryptomeria japonica) (UniProt P18632). The test is described as follows: SPR.
The target of test [6] is T1, Cry j 1 (NF-pCj1, NF[WT]-pCj1) peptide on HLA-DPA1*02:02 / HLA-DPB1*05:01 (human).
T1 peptide: DKSMKVTVAFNQF
Kind of test: cytokine release.

Test [7] addresses T2, Cry j 1 (pCj1) peptide on HLA-DPA1*02:02 / HLA-DPB1*05:01 (human).
T2 peptide: KVTVAFNQF
The test is described as follows: cytokine release.

For test [8], the target named is T1, Cry j 1 (NF-pCj1, NF[WT]-pCj1) peptide …. The test is described as follows: Kd or kinetics.
Test [9] deals with T2, Cry j 1 (pCj1) peptide on …. Kind of test: activation reporter or marker.

With DEEMKVTVAFNQF-GPN-EG2-TAMRA, the “effect of NF mutations on amount of cell-surface displayed peptide (in words)” value in test [1] (1 μM, same peptide dose and HLA-DP5 surface expression, Alexa647 MFI) is recorded as “halved the amounts of the cell-surface displayed peptide”.

As to “DKSMKVTVAFNQF-GPN-EG2-TAMRA [NF-pCj1–TAMRA]”, the “uptake versus concentration in the medium (in words)” value in test [2] is listed as “proportional to its concentration in the medium”. Further, the “amount of surface-displayed peptide per cell versus concentration (in words)” value in test [1] (Alexa 647-labeled anti-TAMRA antibody MFI, 0.25–4 μM) is “nearly proportional to the peptide concentration in the range of 0.25–4 μM”.

With KVTVAFNQF [pCj1], the “CD4^+ T-cell proliferation and clone establishment (in words)” value in the test with CD4^+ T cells is recorded as “some proliferation; also recorded: it was impossible to maintain the cell growth required to establish HLA-DP5-restricted CD4^+ T-cell clones”.

Take “NF[S(P–2)E/K(P–3)E]-pCj1: double mutation of Ser(–2) and Lys(–3) to Glu in a 13-residue Cry j 1 peptide (NF-pCj1) (DEEMKVTVAFNQF)”: the “effect of NF mutation on T-cell activation / IL-2 production (in words)” value in test [3] is reported as “dramatically reduced”.

As for “TCR(SU3–3)^ec αβ molecule (extracellular regions of the TCR(SU3–3) α chain, residues 1–209, and β chain, residues 1–245, with an artificial interchain disulfide bond) (from UniProt A0A0A6YYJ7)”, the results for the Kd in [4] and in test [5] were 92.5 µM and 90.1 µM, respectively.

B1: TCR(NM-4) (TCR)
alpha TRAV16*01 TRAJ48*01 CDR3: CALRSNFGNEKLTF
beta TRBV5-1*01 TRBJ2-2*01 CDR3: CASSLVVAGVYTGELFF
B1: the binding result is reported as “recognises” in test [6] and “no recognition” in test [7].

B2: TCR(SU3–3) (TCR)
alpha TRAV8-3*01 TRAJ34*01 CDR3: CAVAPTYNTDKLIF
beta TRBV7-9*03 TRBJ2-2*01 CDR3: CASSSKGGAGELFF
As to B2, the binding result in [8] is reported as “recognises”.

B3: TCR(NM-7) (TCR)
alpha TRAV12-3*01 TRAJ27*01 CDR3: CGANAGKSTF
beta TRBV30*01 TRBJ2-7*01 CDR3: CAWSVMVWGSEGEQYF
B3: the binding result in test [6] was “recognises”; in test [9] it was “no recognition”.

The values above are taken from paper PMC10478803, “Contributions of the N-terminal flanking residues of an antigenic peptide from the Japanese cedar pollen allergen Cry j 1 to the T-cell activation by HLA-DP5” (International Immunology, 2023).
